In the Human Domainome abundance scans (Beltran et al. 2025) one finds abundance fitness data, which are given here for 36 variants.

± gives the uncertainty stated by the source.

B1: Retinoic acid receptor beta, residues 85 to 161; numbered along this chain, P10826 (parent)
chain: YKPCFVCQDKSSGYHYGVSACEGCKGFFRRSIQKNMIYTCHRDKNCVINKVTRNRCQYCRLQKCFEVGMSKESVRND

The variants in this series derive from B1. The experiment in a line: abundance fitness (aPCA) (normalised: wild type 0, dead -1); higher = more abundant; growth selection in yeast, the domain comes from the species named. The conditions noted are these: Homo sapiens.
YKPCFVCQDKSSGYHYGVSACEGCKGFFRRSIQKNMIYTCHRDKNCVINKVTRNRCQQCRLQKCFEVGMSKESVRND [Y58Q]: the abundance fitness was -0.259 ± 0.084.
As to YKPCFVCQDKSSGYHYGVSACEGCKGFFRRSIQKNMIYTCHRDKNCVINKVTRNRCQWCRLQKCFEVGMSKESVRND [Y58W], the abundance fitness was determined as 0.107 ± 0.051.
For YKPCFVCQDKSSGYHYGVSACEGCKGFFRRSIQKNMIYTCHRDKNCVINKVTRNRCQVCRLQKCFEVGMSKESVRND [Y58V], the abundance fitness is -0.679 ± 0.1.
On to YKPCFVCQDKSSGYHYGVSACEGCKGFFRRSIQKNMIYTCHRDKNCVINKVTRNRCQHCRLQKCFEVGMSKESVRND [Y58H], for which the abundance fitness was -0.111 ± 0.13.
As for YKPCFVCQDKSSGYHYGVSACEGCKGFFRRSIQKNMIYTCHRDKNCVINKVTRNRCQYYRLQKCFEVGMSKESVRND [C59Y], the abundance fitness is -0.831 ± 0.33.
Consider YKPCFVCQDKSSGYHYGVSACEGCKGFFRRSIQKNMIYTCHRDKNCVINKVTRNRCQYWRLQKCFEVGMSKESVRND [C59W], for which the abundance fitness is -0.823 ± 0.21.
Regarding YKPCFVCQDKSSGYHYGVSACEGCKGFFRRSIQKNMIYTCHRDKNCVINKVTRNRCQYKRLQKCFEVGMSKESVRND [C59K], the abundance fitness is -0.998 ± 0.28.
Turning to YKPCFVCQDKSSGYHYGVSACEGCKGFFRRSIQKNMIYTCHRDKNCVINKVTRNRCQYTRLQKCFEVGMSKESVRND [C59T], the abundance fitness was -0.499 ± 0.15.
Take YKPCFVCQDKSSGYHYGVSACEGCKGFFRRSIQKNMIYTCHRDKNCVINKVTRNRCQYNRLQKCFEVGMSKESVRND [C59N]: the abundance fitness is -0.834 ± 0.33.
Turning to YKPCFVCQDKSSGYHYGVSACEGCKGFFRRSIQKNMIYTCHRDKNCVINKVTRNRCQYVRLQKCFEVGMSKESVRND [C59V], the abundance fitness was -0.941 ± 0.14.
Turning to YKPCFVCQDKSSGYHYGVSACEGCKGFFRRSIQKNMIYTCHRDKNCVINKVTRNRCQYRRLQKCFEVGMSKESVRND [C59R], the abundance fitness was -0.869 ± 0.15.
For YKPCFVCQDKSSGYHYGVSACEGCKGFFRRSIQKNMIYTCHRDKNCVINKVTRNRCQYFRLQKCFEVGMSKESVRND [C59F], the abundance fitness is -0.872 ± 0.26.
Turning to YKPCFVCQDKSSGYHYGVSACEGCKGFFRRSIQKNMIYTCHRDKNCVINKVTRNRCQYSRLQKCFEVGMSKESVRND [C59S], the abundance fitness is -0.294 ± 0.084.
As for YKPCFVCQDKSSGYHYGVSACEGCKGFFRRSIQKNMIYTCHRDKNCVINKVTRNRCQYQRLQKCFEVGMSKESVRND [C59Q], the abundance fitness is -0.983 ± 0.3.
With YKPCFVCQDKSSGYHYGVSACEGCKGFFRRSIQKNMIYTCHRDKNCVINKVTRNRCQYGRLQKCFEVGMSKESVRND [C59G], the abundance fitness was -0.758 ± 0.12.
YKPCFVCQDKSSGYHYGVSACEGCKGFFRRSIQKNMIYTCHRDKNCVINKVTRNRCQYIRLQKCFEVGMSKESVRND [C59I]: the abundance fitness was -0.494 ± 0.23.
Regarding YKPCFVCQDKSSGYHYGVSACEGCKGFFRRSIQKNMIYTCHRDKNCVINKVTRNRCQYPRLQKCFEVGMSKESVRND [C59P], the abundance fitness was -0.777 ± 0.18.
Regarding YKPCFVCQDKSSGYHYGVSACEGCKGFFRRSIQKNMIYTCHRDKNCVINKVTRNRCQYARLQKCFEVGMSKESVRND [C59A], the abundance fitness was -0.619 ± 0.097.
As for YKPCFVCQDKSSGYHYGVSACEGCKGFFRRSIQKNMIYTCHRDKNCVINKVTRNRCQYERLQKCFEVGMSKESVRND [C59E], the abundance fitness is -0.916 ± 0.23.
For the variant YKPCFVCQDKSSGYHYGVSACEGCKGFFRRSIQKNMIYTCHRDKNCVINKVTRNRCQYHRLQKCFEVGMSKESVRND [C59H], the abundance fitness was -0.817 ± 0.2.
In the case of YKPCFVCQDKSSGYHYGVSACEGCKGFFRRSIQKNMIYTCHRDKNCVINKVTRNRCQYLRLQKCFEVGMSKESVRND [C59L], the abundance fitness is -0.84 ± 0.12.
With YKPCFVCQDKSSGYHYGVSACEGCKGFFRRSIQKNMIYTCHRDKNCVINKVTRNRCQYMRLQKCFEVGMSKESVRND [C59M], the abundance fitness is -0.732 ± 0.15.
Turning to YKPCFVCQDKSSGYHYGVSACEGCKGFFRRSIQKNMIYTCHRDKNCVINKVTRNRCYYCRLQKCFEVGMSKESVRND [Q57Y], the abundance fitness was 0.163 ± 0.07.
As to YKPCFVCQDKSSGYHYGVSACEGCKGFFRRSIQKNMIYTCHRDKNCVINKVTRNRCDYCRLQKCFEVGMSKESVRND [Q57D], the abundance fitness stood at 0.353 ± 0.063.
Then YKPCFVCQDKSSGYHYGVSACEGCKGFFRRSIQKNMIYTCHRDKNCVINKVTRNRCNYCRLQKCFEVGMSKESVRND [Q57N], with -0.021 ± 0.098; and YKPCFVCQDKSSGYHYGVSACEGCKGFFRRSIQKNMIYTCHRDKNCVINKVTRNRCPYCRLQKCFEVGMSKESVRND [Q57P], with 0.141 ± 0.07.
For the variant YKPCFVCQDKSSGYHYGVSACEGCKGFFRRSIQKNMIYTCHRDKNCVINKVTRNRCTYCRLQKCFEVGMSKESVRND [Q57T], the abundance fitness is -0.251 ± 0.075.
For YKPCFVCQDKSSGYHYGVSACEGCKGFFRRSIQKNMIYTCHRDKNCVINKVTRNRCKYCRLQKCFEVGMSKESVRND [Q57K], the abundance fitness is -0.245 ± 0.065.
Then YKPCFVCQDKSSGYHYGVSACEGCKGFFRRSIQKNMIYTCHRDKNCVINKVTRNRCVYCRLQKCFEVGMSKESVRND [Q57V], with -0.385 ± 0.053; and YKPCFVCQDKSSGYHYGVSACEGCKGFFRRSIQKNMIYTCHRDKNCVINKVTRNRCHYCRLQKCFEVGMSKESVRND [Q57H], with 0.079 ± 0.088.
Consider YKPCFVCQDKSSGYHYGVSACEGCKGFFRRSIQKNMIYTCHRDKNCVINKVTRNRCGYCRLQKCFEVGMSKESVRND [Q57G], for which the abundance fitness turned out to be 0.2 ± 0.028.
Turning to YKPCFVCQDKSSGYHYGVSACEGCKGFFRRSIQKNMIYTCHRDKNCVINKVTRNRCWYCRLQKCFEVGMSKESVRND [Q57W], the abundance fitness worked out at 0.104 ± 0.038.
Then YKPCFVCQDKSSGYHYGVSACEGCKGFFRRSIQKNMIYTCHRDKNCVINKVTRNRCSYCRLQKCFEVGMSKESVRND [Q57S], with 0.144 ± 0.041; and YKPCFVCQDKSSGYHYGVSACEGCKGFFRRSIQKNMIYTCHRDKNCVINKVTRNRCAYCRLQKCFEVGMSKESVRND [Q57A], with 0.158 ± 0.04.
Turning to YKPCFVCQDKSSGYHYGVSACEGCKGFFRRSIQKNMIYTCHRDKNCVINKVTRNRCEYCRLQKCFEVGMSKESVRND [Q57E], the abundance fitness is 0.268 ± 0.045.
For the variant YKPCFVCQDKSSGYHYGVSACEGCKGFFRRSIQKNMIYTCHRDKNCVINKVTRNRCCYCRLQKCFEVGMSKESVRND [Q57C], the abundance fitness was found to be 0.078 ± 0.057.
